This note sets out measurements from publication PMC6778195.

Test [1] addresses ICAM-1^D1D5-Fc (UniProt P05362). The test can be described thus: SPR; ICAM-1^D1D5-Fc immobilized to 850 RU on a CM5 chip precoupled with Protein A; IT4var13 DBLβ proteins 0.9 nM to 250 nM injected at 30 µL/min, 240 s association, 600 s dissociation; 20 mM Hepes, 300 mM NaCl, 0.005% Tween 20, pH 7.2; Biacore T200; global fit to a 2-state reaction model.
Test [2] shares this target. The test can be described thus: SPR. As to conditions: for response: top curve of the dilution series (500 nM), read at end of injection (~300 s), parent: est. 240, read off a plot.

ICAM-1^D1D5-Fc, sequence (P05362 28-480): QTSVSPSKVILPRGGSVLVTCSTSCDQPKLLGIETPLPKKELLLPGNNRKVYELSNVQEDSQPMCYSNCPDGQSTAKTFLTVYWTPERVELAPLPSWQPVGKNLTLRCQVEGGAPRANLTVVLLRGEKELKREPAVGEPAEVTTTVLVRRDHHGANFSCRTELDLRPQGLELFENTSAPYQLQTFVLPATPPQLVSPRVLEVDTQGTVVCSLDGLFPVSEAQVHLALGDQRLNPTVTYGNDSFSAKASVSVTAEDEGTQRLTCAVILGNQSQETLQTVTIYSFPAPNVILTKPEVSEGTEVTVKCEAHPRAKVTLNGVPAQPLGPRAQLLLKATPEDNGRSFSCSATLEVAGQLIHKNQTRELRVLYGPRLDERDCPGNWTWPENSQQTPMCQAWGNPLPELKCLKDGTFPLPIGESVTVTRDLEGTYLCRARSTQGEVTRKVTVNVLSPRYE

Regarding “IT4var13 DBLβ Q1103A (domain or fragment)”, in test [1], the fold decrease in affinity against wild type turned out to be 200 fold.

Consider J1a DBLβ domain (wild type) G1117A, for which the response in test [2] is 35 RU. J1a DBLβ domain (wild type) L1096D: the response in test [2] worked out at 140 RU. Same read-out and setting: for J1a DBLβ domain (wild type) L1093D the value was 260 RU; for J1a DBLβ domain (wild type) Y1097A, 25 RU. The term Kd denotes the concentration at which binding is half-saturated. High values mean lower affinity, low ones higher affinity. In test [2], “IT4var13 DBLβ domain (wild type) (domain or fragment)” came in with a Kd of 1.22 nM.
